Patent US20230406915A1 (HJB HANGZHOU, published 2023)

Columns and labels:
[1] = biological target: the molecule itself; assay: BLI (forteBIO Octet RED96), antibody captured on ProA biosensor, self-association in acetate buffer pH 5.5; acetate at pH 5.5; self-association
Experimental: (§1) Self-association binding constant: At high concentrations, undesirable solution properties such as self-association can pose significant challenges to preparation development. In addition to potential manufacturing and delivery challenges, self-associating substances can also affect biological activity and pharmacokinetic properties.
(§2) The self-association binding constants were measured using the forteBIO Octet technique (Octet RED96). The antibodies were diluted to 150 ug/mL with an acetate buffer (pH 5.5), and then added to sample plates (forteBIO, Greiner, PN655209). A ProA biosensor (forteBIO) was used to capture antibodies. Measurements were performed using basic dynamics under the following settings: baseline 60/load 900/baseline 60/association 300/dissociation 300. The association (Kon) and dissociation (Kdis) rate constants of the target antigen were calculated and used to obtain the dissociation constant (KD). All calculations were performed using software provided by forteBIO.

[2] = biological target: the molecule itself; assay: BLI (forteBIO Octet RED96), antibody captured on ProA biosensor, self-association in acetate buffer pH 5.5
Experimental: as §1, §2

Protein	Kd [1] [µM]	Kd [2] [µM]
M-751 (antibody, V domains shown, also called candidate antibody) VH: QVQLVQSGAEVKKPGSSVKVSCKASGYTFTNYWMNWVRQAPGQGLEWMGMIHPSDSETRLNQKFQGRVTITVDKSTSTAYMELSSLRSEDTAVYYCAREGRLGLRSYAMDYWGQGTLVTVSS VL: DIQMTQSPSSLSASVGDRVTITCRSSQSLLNSSNQKNYLAWYQQKPGKVPKLLIYFASTRESGVPSRFSGSGSGTDFTLTISSLQPEDVATYFCQQHYITPLTFGGGTKVEIKR	438	
M-747 (antibody, human IgG1, kappa, V domains shown, Humanized anti-DKK2 parental antibody; also called parental antibody; parental molecule) VH: QVQLVQSGSELKKPGASVKVSCKASGYTFTNYWMNWVRQAPGQGLEWMGMIHPSDSETRLNQKFKDRVTITVDKSTSTAYMELSSLRSEDTAVYYCAREGRLGLRSYAMDYWGQGTLVTVSS VL: DIVMTQSPDSLAVSLGERATINCKSSQSLLNSSNQKNYLAWYQQKPGQPPKLLVYFASTRESGVPDRFSGSGSGTDFTLTISSLQAEDVAVYFCQQHYITPLTFGGGTKVEIKR		208
M-755 (antibody, V domains shown, also called candidate antibody) VH: QVQLVQSGAEVKKPGASVKVSCKASGYTFTNYWMNWVRQAPGQGLEWMGMIHPSDSETRLNQKLQGRVTITVDKSTSTAYMELRSLRSDDTAVYYCAREGRLGLRSYAMDYWGQGTLVTVSS VL: DIQMTQSPSSLSASVGDRVTITCRSSQSLLNSSNQKNYLAWYQQKPGKAPKLLIYFASTRESGVPSRFSGSGSGTDFTLTISSLQPEDFATYFCQQHYITPLTFGGGTKVEIKR		456
